Measurements from patent US20240124563A1 (NANJING ZAIMING PHARMACEUTICAL, published 2024).

Tests used:
[1] = target: T1, human MSLN-R1-his protein (human, UniProt Q13421 296-390); assay: ELISA, antibody 100 nM
T1 construct: MSLN-R1 = Glu296-Thr390; also called hMSLN-R1-his; not shown: histidine tag
T1 chain: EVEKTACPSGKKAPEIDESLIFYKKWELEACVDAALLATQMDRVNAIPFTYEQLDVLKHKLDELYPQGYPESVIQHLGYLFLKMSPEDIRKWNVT

[2] = target: T2, human MSLN-FL-his protein (human, UniProt Q13421 296-580); assay: competitive ELISA on MSLN-FL-His; other antibody: NB148-27 (3.m3)
T2 construct: Made in HEK293E cells, purified on nickel column; also called hMSLN-FL-his; not shown: histidine tag

[3] = target: T3, human MSLN-R2-his protein (human, UniProt Q13421 391-486); assay: ELISA, antibody 1 nM
T3 construct: MSLN-R2 = Ser391-Asn486; also called hMSLN-R2-his; not shown: histidine tag

[4] = target: T1, human MSLN-R1-his protein; assay: ELISA, antibody 0.01 nM
[5] = target: T1, human MSLN-R1-his protein; assay: ELISA, antibody 1 nM
[6] = target: T2, human MSLN-FL-his protein; assay: competitive ELISA on MSLN-FL-His; other antibody: NB148-13 (3.m1)
[7] = target: T2, human MSLN-FL-his protein; assay: competitive ELISA on MSLN-FL-His; other antibody: NB148-88 (3.m6)
[8] = target: T2, human MSLN-FL-his protein; assay: competitive ELISA on MSLN-FL-His; other antibody: NB149-31 (3.m7)
[9] = target: T1, human MSLN-R1-his protein; assay: ELISA, antibody 0.1 nM
[10] = target: T4, human MSLN-R3-his protein (human, UniProt Q13421 487-598); assay: ELISA, antibody 100 nM
T4 construct: MSLN-R3 = Met487-Ser598; also called hMSLN-R3-his; not shown: histidine tag

[11] = target: T4, human MSLN-R3-his protein; assay: ELISA, antibody 0.0001 nM
[12] = target: T2, human MSLN-FL-his protein; assay: competitive ELISA on MSLN-FL-His; other antibody: Tab107 (C) (1.m4)
[13] = target: T3, human MSLN-R2-his protein; assay: ELISA, antibody 10 nM
[14] = target: T2, human MSLN-FL-his protein; assay: competitive ELISA on MSLN-FL-His; other antibody: Tab108 (R3) (3.m14)
[15] = target: T1, human MSLN-R1-his protein; assay: ELISA, antibody 0.0001 nM
[16] = target: T1, human MSLN-R1-his protein; assay: ELISA, antibody 10 nM
[17] = target: T3, human MSLN-R2-his protein; assay: ELISA, antibody 0.1 nM
[18] = target: T2, human MSLN-FL-his protein; assay: competitive ELISA on MSLN-FL-His; other antibody: NB149-34 (3.m8)
[19] = target: T1, human MSLN-R1-his protein; assay: ELISA, antibody 1 nM
[20] = target: T3, human MSLN-R2-his protein; assay: ELISA, antibody 1 nM; remark: listed apart in the source
[21] = target: T5, human MSLN-FL-his protein (human, UniProt Q13421 296-580); assay: ELISA, antibody 1 nM
T5 construct: also called hMSLN-FL-his; human MSLN full-length protein; not shown: histidine tag

[22] = target: T4, human MSLN-R3-his protein; assay: ELISA, antibody 1 nM
[23] = target: T6, human MSLN-R3-3 polypeptide (purchased from GL Biochem, Cat. No. 406676) (human); assay: ELISA, antibody 1 nM
T6 construct: Printed as Val539-Val588; also called hMSLN-R3-3
T6 peptide: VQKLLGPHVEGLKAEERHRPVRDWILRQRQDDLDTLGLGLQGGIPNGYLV

[24] = target: T3, human MSLN-R2-his protein; assay: ELISA, antibody 0.0001 nM
[25] = target: T4, human MSLN-R3-his protein; assay: ELISA, antibody 0.001 nM
[26] = target: T2, human MSLN-FL-his protein; assay: competitive ELISA on MSLN-FL-His; other antibody: Tab142 (R1) (3.m16)
[27] = target: T2, human MSLN-FL-his protein; assay: competitive ELISA on MSLN-FL-His; other antibody: NB149-95 (3.m11)
[28] = target: T3, human MSLN-R2-his protein; assay: ELISA, antibody 0.01 nM

T4 sequence (Q13421 495-606): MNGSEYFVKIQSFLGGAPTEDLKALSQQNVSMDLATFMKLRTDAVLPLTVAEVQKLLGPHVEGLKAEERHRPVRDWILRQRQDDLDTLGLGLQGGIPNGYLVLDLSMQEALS
T3 sequence (Q13421 other isoform, or with tags, fused parts or gaps): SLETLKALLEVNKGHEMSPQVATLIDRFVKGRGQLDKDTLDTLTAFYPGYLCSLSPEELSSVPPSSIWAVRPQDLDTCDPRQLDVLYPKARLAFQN

B1: Tab107 (YP3, hIgG1) (antibody, V domains shown)
VH: QEQLVESGGGLVQPGASLTLTCTASGIDFSRYYMCWVRQAPGKGLEGIACIYIGGSGSTYYASWAKGRFTISKASSTTVTLQMTSLTAADTATYFCARGTNLNYIFRLWGPGTLVTVSS
VL: DVVMTQTPSPVSAAVGGTVTIKCQASQSINNGLAWYQQKPGQPPRLLIYSASNLESGVPSRFKGSGSGTEFTLTISDLECDDAATYYCQCIWDGNSYVNAFGGGTEVVVRT
notes: also called YP3 human IgG1 antibody
**Q.** Which results are given for B1?
**A.** OD450 nm [1]: 0.08; inhibition rate [2]: 1%; OD450 nm [3]: 0.05; OD450 nm [4]: 0.06; OD450 nm [5]: 0.05; inhibition rate [6]: 38%; inhibition rate [7]: 4%; inhibition rate [8]: -10%; OD450 nm [9]: 0.05; OD450 nm [10]: 0.09; OD450 nm [11]: 0.05; inhibition rate [12]: 65%; OD450 nm [13]: 0.05; inhibition rate [14]: 21%; OD450 nm [15]: 0.04; OD450 nm [16]: 0.06; OD450 nm [17]: 0.04; inhibition rate [18]: -8%; OD450 nm [19]: 0.05; OD450 nm [20]: 0.05; OD450 nm [21]: 1.74; OD450 nm [22]: 0.05; OD450 nm [23]: 0.07; OD450 nm [24]: 0.04; OD450 nm [25]: 0.05; inhibition rate [26]: -9%; inhibition rate [27]: -5%; OD450 nm [28]: 0.04
